In the supplement of paper PMC7877785:
± gives the uncertainty stated by the source.

Assay: self-splicing fitness, log relative to wild type (ln ratio); higher = more splicing; Tetrahymena group I intron in knt gene, E. coli kanamycin selection, DiMSum; sequences stand for … in CUCUCU…GGAGGGAAAAGUUAUCAGGCAUGCACCUGGUAGCUAGUCUUUAAACCAAUAGAUUGCAUCGGUUUAAAAGGCAAGACCGUCAAAUUGCGGGAAAGGGGUCAACAGCCGUUCAGUACCAAGUCUCAGGGGAAACUUUGAGAUGGCCUUGCAAAGGGUAUGGUAAUAAGCUGACGGACAUGGUCCUAACCACGCAGCCAAGUCCUAAGUCAACAGAUCUUCUGUUGAUAUGGAUGCAGUUCACAGACUAAAUGUCGGUCGGGGAAGAUGUAUUCUUCUCAUAAGAUAUAGUCGGACCUCUCCUUAAUGGGAGCUAGCGGAUGAAGUGAUGCAACACUGGAGCCGCUGGGAACUAAUUUGUAUGCGAAAGUAUAUUGAUUAGUUUUGGAGUACUCGUGGUCG
Outline: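 Fitness was computed with DiMSum as the error-weighted combination of replicate fold changes, kanamycin versus none, each normalised to wild type. The library randomised all eight intron nucleotides of the P1ex region, with the intron placed in the knt kanamycin-resistance gene on pET-22b(+) in E. coli BL21(DE3). Six replicate transformations were grown overnight at 37°C or 30°C on LB agar with or without 25 μg/mL kanamycin, plus 100 μg/mL carbenicillin, 50 μM IPTG and 0.2% rhamnose. Pooled colonies were amplicon-sequenced on an Illumina HiSeq 2500.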

Sequence	self-splicing fitness (ln) (30 °C)	self-splicing fitness (ln) (37 °C)
CCUAAGCAAUAUUACGGGCU	-3.03 ± 0.33	-2.46 ± 0.33
UGGCAGCAAUAUUACGUGAU	-1.46 ± 0.13	-1.29 ± 0.17
AUUAAGCAAUAUUACGGUAU	-1.01 ± 0.11	-1.2 ± 0.14
GGUGAGCAAUAUUACGGGCU	-2.81 ± 0.19	-2.67 ± 0.44
GGCAAGCAAUAUUACGUCAU	-1.32 ± 0.072	-0.111 ± 0.083
AUACAGCAAUAUUACGGCGG	-1.19 ± 0.095	-0.617 ± 0.12
CGUUAGCAAUAUUACGUAGG	-0.104 ± 0.093	-0.845 ± 0.14
UGAGAGCAAUAUUACGGAAG	-3.67 ± 0.23	-2.2 ± 0.31
GCGCAGCAAUAUUACGGACA	-1.45 ± 0.085	-0.514 ± 0.089
GCGUAGCAAUAUUACGGGUC	-3.34 ± 0.29	-1.54 ± 0.21
UCAGAGCAAUAUUACGCAUU	-3.35 ± 0.43	-0.634 ± 0.19
UAUUAGCAAUAUUACGUUUA	-1.6 ± 0.21	0.132 ± 0.2
ACCAAGCAAUAUUACGCCGU	-3.18 ± 0.17	-1.66 ± 0.15
CAGCAGCAAUAUUACGCAUU	-3.68 ± 0.15	-0.546 ± 0.089
GGUCAGCAAUAUUACGCCGU	-2.61 ± 0.16	-0.39 ± 0.15
GGGCAGCAAUAUUACGGUUA	-0.537 ± 0.097	-0.339 ± 0.089
CAUUAGCAAUAUUACGGACU	-2.75 ± 0.28	-1.89 ± 0.23
CCCCAGCAAUAUUACGAGGC	-3.53 ± 0.26	-3.1 ± 0.35
UCUAAGCAAUAUUACGUAGA	-1.2 ± 0.098	-0.771 ± 0.15
GCUUAGCAAUAUUACGAAAG	-1.52 ± 0.13	-0.485 ± 0.19
AAUUAGCAAUAUUACGCACU	-0.0585 ± 0.12	-0.106 ± 0.15
CCUCAGCAAUAUUACGACUC	-3.68 ± 0.43	
UGCGAGCAAUAUUACGCCAU		-2.45 ± 0.49
GGCUAGCAAUAUUACGAGCG	-1.17 ± 0.14	-0.288 ± 0.17
GAUCAGCAAUAUUACGGGAA	-0.882 ± 0.13	-1.04 ± 0.13
UUUCAGCAAUAUUACGUCCU	-2.99 ± 0.42	-1.32 ± 0.28

Sequence	self-splicing fitness (ln) (30 °C)	self-splicing fitness (ln) (37 °C)
AGAUAGCAAUAUUACGGGUC	-3.73 ± 0.25	-2.36 ± 0.25
UAUCAGCAAUAUUACGAGAG	-3.03 ± 0.15	-0.0372 ± 0.092
AACGAGCAAUAUUACGCGGU	-3.29 ± 0.26	-1.62 ± 0.15
GCUCAGCAAUAUUACGUUCA	-0.466 ± 0.095	-0.686 ± 0.12
CAAAAGCAAUAUUACGAGGG	-2.77 ± 0.14	-2.53 ± 0.21
UCCUAGCAAUAUUACGGCAA	-2.22 ± 0.2	-1.95 ± 0.19
CGACAGCAAUAUUACGCUAA	-2.16 ± 0.19	-1.57 ± 0.18
ACUCAGCAAUAUUACGGACU	0.409 ± 0.086	-0.57 ± 0.087
UCCCAGCAAUAUUACGUGUC	-2.9 ± 0.15	-2.44 ± 0.16
UCCUAGCAAUAUUACGGUAC	-3.79 ± 0.26	-3.32 ± 0.47
CUACAGCAAUAUUACGAGCA	-2.77 ± 0.16	-2.56 ± 0.23
CUAGAGCAAUAUUACGCAGC	-3.55 ± 0.38	-3.32 ± 0.46
CGUAAGCAAUAUUACGGGUU	-3.63 ± 0.17	-2.98 ± 0.29
CGCGAGCAAUAUUACGAGUG	-3.46 ± 0.31	-1.78 ± 0.2
GCCAAGCAAUAUUACGAUCA	-3.6 ± 0.21	-1.2 ± 0.11
GGUGAGCAAUAUUACGUUAC	-3.12 ± 0.47	-0.718 ± 0.24
CGAAAGCAAUAUUACGGGGC	-4.34 ± 0.32	-1.98 ± 0.19
CCUGAGCAAUAUUACGAUGG	-4.46 ± 0.21	-2.58 ± 0.19
AGCUAGCAAUAUUACGCCGU	-1.23 ± 0.13	-1.2 ± 0.16
CAGCAGCAAUAUUACGAGAC	-3.94 ± 0.36	-2.21 ± 0.26
GAAGAGCAAUAUUACGGAGC		-1.64 ± 0.37
CCUAAGCAAUAUUACGUAUG	-1.82 ± 0.082	-0.95 ± 0.087
GUUGAGCAAUAUUACGAAUC	-1.91 ± 0.26	0.505 ± 0.25
GAUAAGCAAUAUUACGGAUC	-1.37 ± 0.18	-0.674 ± 0.25
UUCCAGCAAUAUUACGGCGC	-2.61 ± 0.14	-0.177 ± 0.12
UGUCAGCAAUAUUACGACCU	-0.114 ± 0.17	0.566 ± 0.17

Sequence	self-splicing fitness (ln) (30 °C)	self-splicing fitness (ln) (37 °C)
CCCCAGCAAUAUUACGCUAG	-3.68 ± 0.13	-2.86 ± 0.17
AGUAAGCAAUAUUACGGAGU	-2.22 ± 0.18	-2.37 ± 0.39
GGUCAGCAAUAUUACGUGGU	-2.54 ± 0.18	-2.17 ± 0.23
CAGCAGCAAUAUUACGCUAC	-3.65 ± 0.38	-2.81 ± 0.38
CCGGAGCAAUAUUACGUCCG	-3.03 ± 0.37	
UUGAAGCAAUAUUACGCGCA	0.548 ± 0.12	0.381 ± 0.12
CCAAAGCAAUAUUACGAUGG	-4.15 ± 0.22	-2.29 ± 0.22
UACAAGCAAUAUUACGUCGU	-3.83 ± 0.18	-2.04 ± 0.17
CGCGAGCAAUAUUACGUGCG		-3.3 ± 0.47
AACGAGCAAUAUUACGCAAA		-1.9 ± 0.35
GUAUAGCAAUAUUACGUGGG	-3.28 ± 0.16	-1.88 ± 0.14
ACGGAGCAAUAUUACGAGGC	-2.43 ± 0.19	-2.07 ± 0.31
ACUCAGCAAUAUUACGACUG	-3.86 ± 0.23	-1.47 ± 0.14
ACGAAGCAAUAUUACGCAAA	-2.64 ± 0.15	-0.916 ± 0.13
UCGGAGCAAUAUUACGGUGU	-3.4 ± 0.31	-1.7 ± 0.37
GUCAAGCAAUAUUACGCGGU	-3.16 ± 0.39	-1.82 ± 0.31
UUACAGCAAUAUUACGAACC	-1.61 ± 0.4	
GUCUAGCAAUAUUACGCUAA	-0.815 ± 0.091	0.163 ± 0.093
CGAAAGCAAUAUUACGCUCC	-1.14 ± 0.18	-1.11 ± 0.21
AGCCAGCAAUAUUACGUAGU	-2.72 ± 0.12	-1.83 ± 0.14
GUUUAGCAAUAUUACGUUAG	-2.24 ± 0.21	-0.81 ± 0.18
CCCUAGCAAUAUUACGAAAU	-2.88 ± 0.21	-2.59 ± 0.31
GGGUAGCAAUAUUACGCCAA	-0.499 ± 0.16	-0.0896 ± 0.15
AAUAAGCAAUAUUACGAUUU	-0.134 ± 0.064	-0.252 ± 0.074
UCGGAGCAAUAUUACGAUCG	-1.22 ± 0.15	-0.115 ± 0.15
